Consider two molecules from patent publication US20080166370A1, “Immunogenic Compositions Comprising Multiple Gonococcal Antigens” (CHIRON SRL, priority 2003, published 2008).

The target of test [1] is T1, C4b binding protein (C4bp) (Homo sapiens, UniProt P04003).
T1 sequence (P04003 49-597): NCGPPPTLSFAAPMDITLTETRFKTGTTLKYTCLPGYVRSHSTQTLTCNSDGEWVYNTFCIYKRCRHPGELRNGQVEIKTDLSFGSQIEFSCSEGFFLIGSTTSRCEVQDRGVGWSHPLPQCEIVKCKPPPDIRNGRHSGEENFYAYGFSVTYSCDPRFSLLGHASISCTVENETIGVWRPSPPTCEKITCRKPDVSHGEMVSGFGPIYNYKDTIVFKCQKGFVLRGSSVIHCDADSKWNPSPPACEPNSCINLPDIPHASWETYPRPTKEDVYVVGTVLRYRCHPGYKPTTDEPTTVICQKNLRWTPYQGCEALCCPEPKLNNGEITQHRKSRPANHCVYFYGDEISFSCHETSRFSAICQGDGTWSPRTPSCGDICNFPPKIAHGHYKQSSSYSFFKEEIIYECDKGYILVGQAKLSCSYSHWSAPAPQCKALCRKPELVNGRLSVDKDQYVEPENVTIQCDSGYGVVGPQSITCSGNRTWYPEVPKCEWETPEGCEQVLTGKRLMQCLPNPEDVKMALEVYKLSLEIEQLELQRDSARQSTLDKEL
Description: Dot blot ligand overlay analysis of C4bp binding. The settings on record: C4bp 10 mg/ml; OmpA from 0.1 mg to 4 mg (FIG. 23).

Test [2] deals with ME-180 human cervical epithelial cells. Description: Immunofluorescence microscopy of purified OmpA binding to epithelial cells. Format: cell-based. The settings on record: 1 mg/ml purified OmpA vs PBS control (FIG. 19). The procedure: Monolayers of the ME-180 cells were treated with PBS (control) or with 1 mg/ml purified OmpA, labeled using polyclonal mouse antiserum against recombinant Ng OmpA-His, followed by anti-mouse Alexa Fluor 488 conjugated antibodies. The results are in FIG. 19.

In test [3] the target is T2, C4b binding protein (C4bp) (Homo sapiens, UniProt P04003).
T2 construct: incubated with 10% NHS as source of C4bp; from tissue; host or cells: 10% NHS (serum)
T2 sequence (P04003 49-597): T1 sequence (P04003 49-597)
T2 sequence (P20851 18-252 partner): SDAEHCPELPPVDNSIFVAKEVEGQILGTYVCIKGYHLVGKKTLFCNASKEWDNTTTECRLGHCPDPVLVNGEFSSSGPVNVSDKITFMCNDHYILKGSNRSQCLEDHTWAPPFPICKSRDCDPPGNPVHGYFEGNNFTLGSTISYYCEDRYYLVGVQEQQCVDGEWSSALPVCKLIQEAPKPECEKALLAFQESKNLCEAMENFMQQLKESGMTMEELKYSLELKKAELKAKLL
Nature of the test: ELISA for the interaction of C4bp with immobilized OmpA. The settings on record: OmpA immobilized from 0.15 mg to 20 mg; 10% NHS as source of C4bp (FIG. 24). Here is the method: It is known that some antigens contribute to serum resistance by binding to complement regulatory protein C4b binding protein (C4bp), leading to a decrease in serum killing by complement attack. […] In further experiments, purified OmpA and three negative control proteins were immobilized in the wells of a microtiter plate at different concentrations (from 0.15 mg to 20 mg). The wells were blocked with 5% skimmed milk in PBS and then incubated with 10% NHS as source of C4bp.
(In general: In an ELISA, binding on a coated surface is turned into a signal by an enzyme label.)

Test [4] has as its system complement cascade. Description: C3 binding assay. The settings on record: FIG. 10.

B1: OmpA: gonococcal OmpA protein, SEQ ID 2; expressed in E. coli with C-terminal His-tag and purified (protein, listed as Neisseria gonorrhoeae)
chain: MTFFKPSTVVLTASALALSGCVADPVTGQQSPNKSAMYGLGGAAVCGIVGALTHSGKGARNSALACGAIGAGVGGYMDYQEQRLRQNLAGTQIEIQRQGNQIRLVMPESVTFATGSAALGGSAQYALNTAAQTLVQYPDTTLTINGHTDNTGSDAVNNPLSQHRAQAVAYYLQTRGVAASRLTVYGYGSHMPVASNATVEGRAQNRRVEILINPDQRAVNAARHM
modifications: C-terminal His-tag
notes: expressed in E. coli with C-terminal His-tag and purified
As to B1, the “C4bp binding (dot blot)” value in test [1] is “binding”. Further, the “binding to ME-180 cells” value in test [2] is reported as “binds”. Moreover, the “bound C4bp (ELISA)” value in test [3] was “bound C4bp was detected”.

B2: App: gonococcal App autotransporter protein, SEQ ID 7, related to meningococcal adhesion penetration protein (protein, listed as Neisseria gonorrhoeae)
chain: MKTTDKRTTETHRKAPKTGRIRFSPAYLAICLSFGILPQARAGHTYFGINYQYYRDFAENKGKFAVGAKDIEVYNKKGELVGKSMTKAPMIDFSVVSRNGVAALAGDQYIVSVAHNGGYNNVDFGAEGSNPDQHRFSYQIVKRNNYKAGTNGHPYGGDYHMPRLHKFVTDAEPVEMTSYMDGWKYADLNKYPDRVRIGAGRQYWRSDEDEPNNRESSYHIASAYSWLVGGNTFAQNGSGGGTVNLGSEKIKHSPYGFLPTGGSFGDSGSPMFIYDAQKQKWLINGVLQTGNPYIGKSNGFQLVRKDWFYDEIFAGDTHSVFYEPHQNGKYFFNDNNNGAGKIDAKHKHYSLPYRLKTRTVQLFNVSLSETAREPVYHAAGGVNSYRPRLNNGENISFIDKGKGELILTSNINQGAGGLYFEGNFTVSPKNNETWQGAGVHISDGSTVTWKVNGVANDRLSKIGKGTLLVQAKGENQGSVSVGDGKVILDQQADDQGKKQAFSEIGLVSGRGTVQLNADNQFNPDKLYFGFRGGRLDLNGHSLSFHRIQNTDEGAMIVNHNQDKESTVTITGNKDITTTGNNNNLDSKKEIAYNGWFGEKDATKTNGGLNLNYPPEEADRTLLLSGGTNLNGNITQTNGKLFFSGRPTPHAYNHLGSGWSKMEGIPQGEIVWDNDWIDRTFKAENFHIQGGQAVVSRNVAKVEGDWHLSNHAQAVFGVAPHQSHTICTRSDWTGLTSCTEKTITDDKVIASLSKTDVRGNVSLADHAHLNLTGLATFNGNLVQAETRTIRLRANATQNGNLSLVGNAQATFNQATLNGNTSASDNASFNLSNNAVQNGSLTLSDNAKANVSHSALNGNVSLADKAVFHFENSRFTGKISGGKDTALHLKDSEWTLPSGTELGNLNLDNATITLNSAYRHDAAGAQTGSAADAPRRRSRRSLLSVTPPTSAESRFNTLTVNGKLNGQGTFRFMSELFGYRSGKLKLAESSEGTYTLAVNNTGNEPVSLEQLTVVEGKDNTPLSENLNFTLQNEHVDAGAWRYQLIRKDGEFRLHNPVKEQELSDKLGKAGETEAALTAKQAQLAAKQQAEKDNAQSLDALIAAGRNATEKAESVAEPARQAGGENAGIMQAEEEKKRVQADKDTALAKQREAETRPATTAFPRARRARRDLPQPQPQPQPQPQRDLISRYANSGLSEFSATLNSVFAVQDELDRVFAEDRRNAVWTSGIRDTKHYRSQDFRAYRQQTDLRQIGMQKNLGSGRVGILFSHNRTGNTFDDGIGNSARLAHGAVFGQYGIGRFDIGISAGAGFSSGSLSDGIRGKIRRRVLHYGIQARYRAGFGGFGIEPHIGATRYFVQKADYRYENVNIATPGLAFNRYRAGIKADYSFKPAQHISITPYLSLSYTDAASGKVRTRVNTAVLAQDFGKTRSAEWGVNAEIKGFTLSLHAAAAKGPQLEAQHSAGIKLGYRW
On to B2, for which the “elicitation of complement-activating antibodies” value in test [4] is “able to elicit antibodies which activate the complement cascade”.
